In publication PMC7878476:

Target: DnaJB8ΔCTD (human)
Assay: cross-linking; HspA1A in 1× PBS pH 7.4 mixed with 40 μM DnaJB8, JD_(1–82), DnaJB8ΔCTD or DnaJB8F→S; 37 °C, ADH/DMTMM; XL–MS in triplicate

Chain of human Hsp70 (HspA1A) (P0DMV8 whole entry): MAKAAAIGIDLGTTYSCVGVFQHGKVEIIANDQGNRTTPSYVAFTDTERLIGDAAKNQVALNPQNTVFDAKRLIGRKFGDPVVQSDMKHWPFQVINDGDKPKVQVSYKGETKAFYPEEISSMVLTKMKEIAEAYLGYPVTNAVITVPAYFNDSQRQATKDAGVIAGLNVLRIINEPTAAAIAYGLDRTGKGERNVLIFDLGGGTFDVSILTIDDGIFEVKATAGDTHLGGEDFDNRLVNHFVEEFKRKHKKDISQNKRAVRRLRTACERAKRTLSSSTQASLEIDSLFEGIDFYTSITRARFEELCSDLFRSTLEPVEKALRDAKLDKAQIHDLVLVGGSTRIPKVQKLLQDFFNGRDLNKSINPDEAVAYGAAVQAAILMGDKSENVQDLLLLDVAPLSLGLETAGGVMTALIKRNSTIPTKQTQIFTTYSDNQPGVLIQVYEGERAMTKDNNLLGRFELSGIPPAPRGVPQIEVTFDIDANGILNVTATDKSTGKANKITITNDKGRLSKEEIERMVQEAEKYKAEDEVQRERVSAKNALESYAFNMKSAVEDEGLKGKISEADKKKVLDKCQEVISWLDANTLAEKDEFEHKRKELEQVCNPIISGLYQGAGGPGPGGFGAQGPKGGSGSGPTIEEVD

“human Hsp70 (HspA1A) (from UniProt P0DMV8 1-641) (natural protein)” gave a total cross-links between the JD and HspA1A across three XL–MS experiments of 14 cross-links.
